Target: T1, recombinant purified GDF-8 (UniProt O14793 267-375, limits assumed)
T1 sequence (looked up): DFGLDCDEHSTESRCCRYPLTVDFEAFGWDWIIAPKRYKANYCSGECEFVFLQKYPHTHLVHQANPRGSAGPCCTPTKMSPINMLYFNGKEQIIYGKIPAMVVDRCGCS
Assay: cell-based or functional assay

IC50 for inhibition of GDF-8 in the reporter gene assay ((CAGA)12 luciferase, RD cells, 20 ng/ml GDF-8): ~3 nM
B1: mouse GASP1 cloned with a C-terminal V5-His tag (GASP1-V5-His) (other, not shown: small tags and cut ends)
chain: LPPIRYSHAGICPNDMNPNLWVDAQSTCKRECETDQECETYEKCCPNVCGTKSCVAARYMDVKGKKGPVGMPKEATCDHFMCLQQGSECDIWDGQPVCKCKDRCEKEPSFTCASDGLTYYNRCFMDAEACSKGITLSVVTCRYHFTWPNTSPPPPETTVHPTTASPETLGLDMAAPALLNHPVHQSVTVGETVSFLCDVVGRPRPELTWEKQLEDRENVVMRPNHVRGNVVVTNIAQLVIYNVQPQDAGIYTCTARNVAGVLRADFPLSVVRGGQARATSESSLNGTAFPATECLKPPDSEDCGEEQTRWHFDAQANNCLTFTFGHCHHNLNHFETYEACMLACMSGPLATCSLPALQGPCKAYVPRWAYNSQTGLCQSFVYGGCEGNGNNFESREACEESCPFPRGNQHCRACKPRQKLVTSFCRSDFVILGRVSELTEEQDSGRALVTVDEVLKDEKMGLKFLGREPLEVTLLHVDWTCPCPNVTVGETPLIIMGEVDGGMAMLRPDSFVGASSTRRVRKLREVMYKKTCDVLKDFLGLQ
